Measured values: publication PMC2171815

Molecular target: Cog3p (subunit 3 of the conserved oligomeric Golgi (COG) complex) (rat (endogenous in rat liver Golgi))
Experiment: co-IP

- percent of total co-precipitated: 5%
B1: GS28 (intra-Golgi v-SNARE) (natural protein)
chain: MAAGTSNYWEDLRKQARQLENELDLKLVSFSKLCTSYSHSSARDGGRDRYSSDTTPLLNGSSQDRMFETMAIEIEQLLARLTGVNDKMAEYTHSAGVPSLNAALMHTLQRHRDILQDYTHEFHKTKANFMAIRERENLMGSVRKDIESYKSGSGVNNRRTELFLKEHDHLRNSDRLIEETISIAMATKENMTSQRGMLKSIHSKMNTLANRFPAVNSLIQRINLRKRRDSLILGGVIGICTILLLLYAFH
